Measured values as given in US20050271651A1, “Inhibition of bright function as a treatment for excessive immunoglobulin production” (Oklahoma Medical Research Foundation, published 2005).

T1: mouse Bright, native (untagged) wild-type (mouse) (UniProt Q62431)
T1 sequence (looked up): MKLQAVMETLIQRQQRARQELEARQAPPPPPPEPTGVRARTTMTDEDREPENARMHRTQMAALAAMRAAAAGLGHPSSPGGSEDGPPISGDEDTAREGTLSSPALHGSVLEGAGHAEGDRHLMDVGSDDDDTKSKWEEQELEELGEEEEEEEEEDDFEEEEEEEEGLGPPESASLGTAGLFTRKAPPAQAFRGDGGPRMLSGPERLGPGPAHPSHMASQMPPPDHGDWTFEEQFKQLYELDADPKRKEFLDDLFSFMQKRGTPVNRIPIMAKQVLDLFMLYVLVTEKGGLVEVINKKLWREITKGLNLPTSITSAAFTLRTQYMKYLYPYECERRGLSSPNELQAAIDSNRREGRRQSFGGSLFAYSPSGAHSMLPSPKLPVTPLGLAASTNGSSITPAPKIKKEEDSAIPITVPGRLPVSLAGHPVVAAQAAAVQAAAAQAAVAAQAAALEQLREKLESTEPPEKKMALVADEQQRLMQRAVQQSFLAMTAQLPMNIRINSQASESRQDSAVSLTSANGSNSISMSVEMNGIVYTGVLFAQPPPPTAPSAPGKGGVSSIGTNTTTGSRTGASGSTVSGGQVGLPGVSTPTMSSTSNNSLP

B1: mouse Bright, native (untagged) wild-type (other, UniProt Q62431 1-601, looked up)
chain: MKLQAVMETLIQRQQRARQELEARQAPPPPPPEPTGVRARTTMTDEDREPENARMHRTQMAALAAMRAAAAGLGHPSSPGGSEDGPPISGDEDTAREGTLSSPALHGSVLEGAGHAEGDRHLMDVGSDDDDTKSKWEEQELEELGEEEEEEEEEDDFEEEEEEEEGLGPPESASLGTAGLFTRKAPPAQAFRGDGGPRMLSGPERLGPGPAHPSHMASQMPPPDHGDWTFEEQFKQLYELDADPKRKEFLDDLFSFMQKRGTPVNRIPIMAKQVLDLFMLYVLVTEKGGLVEVINKKLWREITKGLNLPTSITSAAFTLRTQYMKYLYPYECERRGLSSPNELQAAIDSNRREGRRQSFGGSLFAYSPSGAHSMLPSPKLPVTPLGLAASTNGSSITPAPKIKKEEDSAIPITVPGRLPVSLAGHPVVAAQAAAVQAAAAQAAVAAQAAALEQLREKLESTEPPEKKMALVADEQQRLMQRAVQQSFLAMTAQLPMNIRINSQASESRQDSAVSLTSANGSNSISMSVEMNGIVYTGVLFAQPPPPTAPSAPGKGGVSSIGTNTTTGSRTGASGSTVSGGQVGLPGVSTPTMSSTSNNSLP
notes: range 1-601; Untagged protein, tested in three forms: expressed in CHO cells, in vitro translated, or endogenous in the mouse B cell lines BCg3R-1d and M12g3Ri; Found as a dimer in solution by size exclusion chromatography; also called native Bright; wild-type Bright

Assays:
[1] = biological target: mouse Bright, wild-type, C-terminal myc-his tagged (mouse) (UniProt Q62431); assay: cell-based or functional assay
[2] = biological target: T1, mouse Bright, native (untagged) wild-type (mouse); assay: cell-based or functional assay
[3] = biological target: human Btk, endogenous in the B cell lines CL01 and 300212 (human, UniProt Q06187 2-659); assay: EMSA supershift with anti-Btk, nuclear extracts of CL01 and 300212 cells
Description: FIG. 7—Btk associates with Bright in a subset of DNA-bound complexes. Mobility-shift assays were performed with nuclear extracts from two B cell lines (CL01 and 300212) and the T cell line, Molt-4. Anti-sera to CDP or the pleckstrin domain of Btk was added as in FIG. 2A-D. In some cases the anti-Btk sera was diluted 1:10 with PBS (0.1) prior to addition. Data are representative of six experiments.
Electrophoretic mobility shift assays (EMSAs). Nuclear extracts were prepared by hypotonic lysis, protein concentrations were quantified with Bradford reagents (BioRad, Richmond, Calif.), and EMSAs were performed in 4% nondenaturing acrylamide gels after incubation for 15 min at 37° C. with gamma-³²P-labeled probe, as previously described (Buchanan et al., 1995). The prototypic Bright binding site (a 150 base pair Bam HI-Fok I fragment called bf150) from the S107 V1 5′ flanking sequence (Webb et al., 1991) was used as a probe. In some instances, antibodies were added 5 min before incubation with the probe. […] A double-stranded oligo containing the 45 base pair foot-printed Bright binding site within bf150 described in Webb et al. (1991) was used as a specific competitor in increasing concentrations and a mutated version of that oligonucleotide containing the double-stranded sequence corresponding to 5′-[…]-3′ (SEQ ID NO:6) was used as a non-specific competitor. […]

[4] = biological target: the molecule itself; assay: size exclusion chromatography of nuclear extracts, western blot of fractions
Description: (§1) FIGS. 11A-B—Tagged Bright proteins dimerize with native Bright. (FIG. 11A) Nuclear extracts from cells expressing Bright protein were subjected to size exclusion chromatography and protein fractions were analyzed for Bright by western blotting (lower panel). Data are presented graphically relative to molecular weight standards in the upper panel and are representative of four experiments. (FIG. 11B) C-terminal myc-his tagged Bright was either singly or coexpressed in CHO cells with native Bright. […] Immunoprecipitations using anti-myc Ab (middle panel) and anti-Sp1 as an isotype control (bottom panel) were performed with each of the transfected extracts and developed with anti-Bright reagents. Arrows indicate immunoglobulin heavy chain cross-reactive with the secondary reagent. Data are representative of two separate experiments.
Column chromatography. Nuclear extracts from CHO cells transfected with the full-length Bright expression plasmid (Herrscher et al., 1995) were centrifuged at 10,000×g to remove aggregates and applied to a pre-calibrated Bio-Gel A 0.5 m size exclusion column (Bio-Rad, Hercules, Calif.) in 0.05 M Tris-HCl, pH 8.0, 0.1 M KCl and 20% glycerol according to the manufacturer's directions. The column was calibrated before and after use with Bio-Rad gel filtration standards to ensure maintenance of column integrity. […]

[5] = biological target: B1; assay: co-expression in CHO cells, anti-myc immunoprecipitation, anti-Bright blot
Description: as §1
To determine if the mutated proteins formed heterodimers with wild-type Bright, his-myc-tagged mutant forms of Bright were co-expressed in CHO cells with native wild-type Bright. Tagged proteins were distinguished from native Bright by the slight size differences in western blots (FIG. 11B) and were confirmed using anti-tag antibodies (not shown). Anti-myc antibodies were used to immunoprecipitate the tagged proteins and blots were developed with anti-Bright (FIG. 11B). In every case, a lower molecular weight band was detected that reflected the presence of native Bright.

human Btk, endogenous in the B cell lines CL01 and 300212, sequence (Q06187 2-659 limits assumed): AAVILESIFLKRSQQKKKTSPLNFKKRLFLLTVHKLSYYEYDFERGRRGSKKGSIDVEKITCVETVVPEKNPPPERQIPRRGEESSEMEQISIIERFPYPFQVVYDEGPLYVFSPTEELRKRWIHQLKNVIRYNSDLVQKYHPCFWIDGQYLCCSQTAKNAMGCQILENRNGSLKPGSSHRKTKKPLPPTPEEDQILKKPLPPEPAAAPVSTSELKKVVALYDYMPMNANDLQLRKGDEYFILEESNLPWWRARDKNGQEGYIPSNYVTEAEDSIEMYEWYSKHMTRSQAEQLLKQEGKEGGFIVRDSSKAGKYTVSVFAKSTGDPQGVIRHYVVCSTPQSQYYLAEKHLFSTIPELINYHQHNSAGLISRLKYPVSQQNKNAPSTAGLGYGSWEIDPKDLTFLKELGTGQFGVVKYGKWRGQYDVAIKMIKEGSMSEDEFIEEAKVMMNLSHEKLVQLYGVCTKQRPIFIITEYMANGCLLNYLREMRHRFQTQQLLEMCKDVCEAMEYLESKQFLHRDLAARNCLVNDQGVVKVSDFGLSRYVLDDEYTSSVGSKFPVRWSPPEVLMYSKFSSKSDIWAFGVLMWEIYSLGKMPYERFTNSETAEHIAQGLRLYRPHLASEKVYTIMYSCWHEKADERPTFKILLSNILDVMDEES

Molecule | binding result [5] | other results
Btk xid mutant (R28C) (enzyme) | – | V1 transcription relative to wild-type Btk (Real Time PCR, CHO cells) [1]: 50%
Bruton's tyrosine kinase (Btk), wild-type, ectopically expressed or recombinant (enzyme) | – | Bright DNA-binding activity remaining after competitor DNA (EMSA, in vitro translated Bright plus recombinant Btk) [2]: < 50 % reduction
human Bright (B cell regulator of IgH transcription) (other, Transcription factor; Tested as in vitro translated protein from a full-length clone, and as endogenous protein in nuclear extracts of the human cell lines CL01, K562 and 300212; also called Dril 1; DRIL1) MKLQAVMETLLQRQQRARQELEARQQLPPDPPAAPPGRARAAPDEDREPESARMQRAQMAALAAMRAAAAGLGHPASPGGSEDGPPGSEEEDAAREGTPGSPGRGREGPGEEHFEDMASDEDMKPKWEEEEMEEDLGEDEEEEEEDYEDEEEEEDEEGLGPPGPASLGTTALFPRKAQPPQAFRGDGVPRVLGGQERPGPGPAHPGGAAHVAPQLQPPDHGDWTYEEQFKQLYELDGDPKRKEFLDDLFSFMQKRGTPVNRIPIMAKQVLDLFMLYVLVTEKGGLVEVINKKLWREITKGLNLPTSITSAAFTLRTQYMKYLYPYECEKRGLSNPNELQAAIDSNRREGRRQSFGGSLFAYSPGGAHGMLSSPKLPVSSLGLAASTNGSSITPAPKIKKEEDSAIPITVPGRLPVSLAGHPVVAAQAAAVQAAAAQAAVAAQAAALEQLREKLESAEPPEKKMALVADEQQRLMQRALQQNFLAMAAQLPMSIRINSQASESRQDSAVNLTGTNGSNSISMSVEINGIMYTGVLFAQPPAPTPTSAPNKGGGGGGGSSSNAGGRGGNTGTSGGQAGPAGLSTPSTSTSNNSLP | – | binding result [3]: binds
B1 | – | binding result [4]: binds
mouse Bright Y330A, C-terminal myc-his tagged (other, UniProt Q62431 1-601, looked up, range 1-601; not shown: C-terminal myc-his tag from vector pcDNA4/TO/myc-His B) MKLQAVMETLIQRQQRARQELEARQAPPPPPPEPTGVRARTTMTDEDREPENARMHRTQMAALAAMRAAAAGLGHPSSPGGSEDGPPISGDEDTAREGTLSSPALHGSVLEGAGHAEGDRHLMDVGSDDDDTKSKWEEQELEELGEEEEEEEEEDDFEEEEEEEEGLGPPESASLGTAGLFTRKAPPAQAFRGDGGPRMLSGPERLGPGPAHPSHMASQMPPPDHGDWTFEEQFKQLYELDADPKRKEFLDDLFSFMQKRGTPVNRIPIMAKQVLDLFMLYVLVTEKGGLVEVINKKLWREITKGLNLPTSITSAAFTLRTQYMKYLYPAECERRGLSSPNELQAAIDSNRREGRRQSFGGSLFAYSPSGAHSMLPSPKLPVTPLGLAASTNGSSITPAPKIKKEEDSAIPITVPGRLPVSLAGHPVVAAQAAAVQAAAAQAAVAAQAAALEQLREKLESTEPPEKKMALVADEQQRLMQRAVQQSFLAMTAQLPMNIRINSQASESRQDSAVSLTSANGSNSISMSVEMNGIVYTGVLFAQPPPPTAPSAPGKGGVSSIGTNTTTGSRTGASGSTVSGGQVGLPGVSTPTMSSTSNNSLP | binds | –
mouse Bright F317A, C-terminal myc-his tagged (other, UniProt Q62431 1-601, looked up, range 1-601; not shown: C-terminal myc-his tag from vector pcDNA4/TO/myc-His B) MKLQAVMETLIQRQQRARQELEARQAPPPPPPEPTGVRARTTMTDEDREPENARMHRTQMAALAAMRAAAAGLGHPSSPGGSEDGPPISGDEDTAREGTLSSPALHGSVLEGAGHAEGDRHLMDVGSDDDDTKSKWEEQELEELGEEEEEEEEEDDFEEEEEEEEGLGPPESASLGTAGLFTRKAPPAQAFRGDGGPRMLSGPERLGPGPAHPSHMASQMPPPDHGDWTFEEQFKQLYELDADPKRKEFLDDLFSFMQKRGTPVNRIPIMAKQVLDLFMLYVLVTEKGGLVEVINKKLWREITKGLNLPTSITSAAATLRTQYMKYLYPYECERRGLSSPNELQAAIDSNRREGRRQSFGGSLFAYSPSGAHSMLPSPKLPVTPLGLAASTNGSSITPAPKIKKEEDSAIPITVPGRLPVSLAGHPVVAAQAAAVQAAAAQAAVAAQAAALEQLREKLESTEPPEKKMALVADEQQRLMQRAVQQSFLAMTAQLPMNIRINSQASESRQDSAVSLTSANGSNSISMSVEMNGIVYTGVLFAQPPPPTAPSAPGKGGVSSIGTNTTTGSRTGASGSTVSGGQVGLPGVSTPTMSSTSNNSLP | binds | –
mouse Bright W299A, C-terminal myc-his tagged (other, UniProt Q62431 1-601, looked up, range 1-601; not shown: C-terminal myc-his tag from vector pcDNA4/TO/myc-His B) MKLQAVMETLIQRQQRARQELEARQAPPPPPPEPTGVRARTTMTDEDREPENARMHRTQMAALAAMRAAAAGLGHPSSPGGSEDGPPISGDEDTAREGTLSSPALHGSVLEGAGHAEGDRHLMDVGSDDDDTKSKWEEQELEELGEEEEEEEEEDDFEEEEEEEEGLGPPESASLGTAGLFTRKAPPAQAFRGDGGPRMLSGPERLGPGPAHPSHMASQMPPPDHGDWTFEEQFKQLYELDADPKRKEFLDDLFSFMQKRGTPVNRIPIMAKQVLDLFMLYVLVTEKGGLVEVINKKLAREITKGLNLPTSITSAAFTLRTQYMKYLYPYECERRGLSSPNELQAAIDSNRREGRRQSFGGSLFAYSPSGAHSMLPSPKLPVTPLGLAASTNGSSITPAPKIKKEEDSAIPITVPGRLPVSLAGHPVVAAQAAAVQAAAAQAAVAAQAAALEQLREKLESTEPPEKKMALVADEQQRLMQRAVQQSFLAMTAQLPMNIRINSQASESRQDSAVSLTSANGSNSISMSVEMNGIVYTGVLFAQPPPPTAPSAPGKGGVSSIGTNTTTGSRTGASGSTVSGGQVGLPGVSTPTMSSTSNNSLP | binds | –
mouse Bright double point mutant (W299A and Y330A), C-terminal myc-his tagged (other, UniProt Q62431 1-601, looked up, range 1-601; also called DP; DP Bright; not shown: C-terminal myc-his tag from vector pcDNA4/TO/myc-His B) MKLQAVMETLIQRQQRARQELEARQAPPPPPPEPTGVRARTTMTDEDREPENARMHRTQMAALAAMRAAAAGLGHPSSPGGSEDGPPISGDEDTAREGTLSSPALHGSVLEGAGHAEGDRHLMDVGSDDDDTKSKWEEQELEELGEEEEEEEEEDDFEEEEEEEEGLGPPESASLGTAGLFTRKAPPAQAFRGDGGPRMLSGPERLGPGPAHPSHMASQMPPPDHGDWTFEEQFKQLYELDADPKRKEFLDDLFSFMQKRGTPVNRIPIMAKQVLDLFMLYVLVTEKGGLVEVINKKLAREITKGLNLPTSITSAAFTLRTQYMKYLYPAECERRGLSSPNELQAAIDSNRREGRRQSFGGSLFAYSPSGAHSMLPSPKLPVTPLGLAASTNGSSITPAPKIKKEEDSAIPITVPGRLPVSLAGHPVVAAQAAAVQAAAAQAAVAAQAAALEQLREKLESTEPPEKKMALVADEQQRLMQRAVQQSFLAMTAQLPMNIRINSQASESRQDSAVSLTSANGSNSISMSVEMNGIVYTGVLFAQPPPPTAPSAPGKGGVSSIGTNTTTGSRTGASGSTVSGGQVGLPGVSTPTMSSTSNNSLP | binds | –
